Experimental data published in the supplement of paper PMC7877785.
± gives the uncertainty stated by the source.

Experiment: self-splicing fitness, log relative to wild type (ln ratio); higher = more splicing; Tetrahymena group I intron in knt gene, E. coli kanamycin selection, DiMSum; sequences stand for … in CUCUCU…GGAGGGAAAAGUUAUCAGGCAUGCACCUGGUAGCUAGUCUUUAAACCAAUAGAUUGCAUCGGUUUAAAAGGCAAGACCGUCAAAUUGCGGGAAAGGGGUCAACAGCCGUUCAGUACCAAGUCUCAGGGGAAACUUUGAGAUGGCCUUGCAAAGGGUAUGGUAAUAAGCUGACGGACAUGGUCCUAACCACGCAGCCAAGUCCUAAGUCAACAGAUCUUCUGUUGAUAUGGAUGCAGUUCACAGACUAAAUGUCGGUCGGGGAAGAUGUAUUCUUCUCAUAAGAUAUAGUCGGACCUCUCCUUAAUGGGAGCUAGCGGAUGAAGUGAUGCAACACUGGAGCCGCUGGGAACUAAUUUGUAUGCGAAAGUAUAUUGAUUAGUUUUGGAGUACUCGUGGUCG
Outline: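 Six replicate transformations of E. coli BL21(DE3) with a pET-22b(+) library were grown overnight at 37°C or 30°C. The library randomised all eight P1ex-region intron nucleotides, the intron lying in the knt kanamycin-resistance gene, and plates were LB agar with or without 25 μg/mL kanamycin plus 100 μg/mL carbenicillin, 50 μM IPTG and 0.2% rhamnose. Pooled colonies were amplicon-sequenced on an Illumina HiSeq 2500, and fitness is the DiMSum error-weighted combination of wild-type-normalised replicate fold changes, kanamycin versus none.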

| Sequence | self-splicing fitness (ln) (30 °C) | self-splicing fitness (ln) (37 °C) |
| --- | --- | --- |
| CCUUAGCAAUAUUACGGAAA | -3.07 ± 0.24 |  |
| UGGGAGCAAUAUUACGUACU |  | -2.02 ± 0.33 |
| UUAUAGCAAUAUUACGGGCU | -2 ± 0.33 | -1.3 ± 0.22 |
| CUUAAGCAAUAUUACGCAGC | -3.43 ± 0.25 | -1.93 ± 0.37 |
| GAGAAGCAAUAUUACGCCUG | -0.32 ± 0.098 | -0.385 ± 0.17 |
| GCCAAGCAAUAUUACGUCUC | -0.775 ± 0.067 | -0.174 ± 0.087 |
| UAUCAGCAAUAUUACGUAAG | -2.16 ± 0.16 | -1.09 ± 0.17 |
| UUGUAGCAAUAUUACGUAUA | -2.1 ± 0.17 | -0.709 ± 0.15 |
| GAACAGCAAUAUUACGUAAA | -0.541 ± 0.061 | 0.234 ± 0.075 |
| CGUCAGCAAUAUUACGCAGA | -2.79 ± 0.46 | -3.76 ± 0.46 |
| UUUCAGCAAUAUUACGUAUA | -0.408 ± 0.21 | -0.0411 ± 0.25 |
| CAAGAGCAAUAUUACGUCGU | -3.72 ± 0.23 | -2.66 ± 0.25 |
| CCAGAGCAAUAUUACGAGCG | -0.698 ± 0.084 | -0.775 ± 0.14 |
| UGUAAGCAAUAUUACGCAUC | -3.16 ± 0.31 | -1.74 ± 0.23 |
| UCGCAGCAAUAUUACGUCUC |  | -1.97 ± 0.27 |
| UGAUAGCAAUAUUACGUGUA | -2.89 ± 0.18 | -1.38 ± 0.13 |
| AAUCAGCAAUAUUACGUCCC | -0.818 ± 0.1 | 0.164 ± 0.14 |
| AGCAAGCAAUAUUACGCAAU | -2.54 ± 0.15 | -1.41 ± 0.13 |
| GAUUAGCAAUAUUACGGCUU | -0.0112 ± 0.094 | -0.0247 ± 0.11 |
| CAUGAGCAAUAUUACGGCGG | -0.18 ± 0.094 | -0.278 ± 0.14 |
| CGCUAGCAAUAUUACGCUAU |  | -2.46 ± 0.27 |
| CAGGAGCAAUAUUACGGGUG | -1.64 ± 0.082 | -0.707 ± 0.08 |
| AUUUAGCAAUAUUACGGCGC | -0.408 ± 0.16 | -0.248 ± 0.22 |
| AGACAGCAAUAUUACGUGGG | -3.37 ± 0.13 | -2.37 ± 0.13 |
| GGGAAGCAAUAUUACGUGCG | -1.4 ± 0.11 | -0.371 ± 0.13 |

| Sequence | self-splicing fitness (ln) (30 °C) | self-splicing fitness (ln) (37 °C) |
| --- | --- | --- |
| AUCAAGCAAUAUUACGUACG | -2.54 ± 0.11 | -0.576 ± 0.11 |
| AGGUAGCAAUAUUACGGAGG | -4.103 ± 0.034 | -3.11 ± 0.043 |
| GCGCAGCAAUAUUACGGUGG | -1.74 ± 0.059 | -0.842 ± 0.08 |
| UUUUAGCAAUAUUACGUACG | -2.14 ± 0.37 | -0.297 ± 0.33 |
| GGAUAGCAAUAUUACGCCUA | -1.45 ± 0.14 | -0.0155 ± 0.17 |
| AACCAGCAAUAUUACGUAUU | -1.79 ± 0.072 | -0.754 ± 0.08 |
| GCACAGCAAUAUUACGACGC | -0.317 ± 0.079 | -0.196 ± 0.12 |
| CCGUAGCAAUAUUACGUGGU | -4.27 ± 0.24 | -2.12 ± 0.14 |
| UCCUAGCAAUAUUACGAUUU | -2.16 ± 0.16 | -1.36 ± 0.21 |
| UAUGAGCAAUAUUACGCUCA | -2.45 ± 0.31 | -2.73 ± 0.27 |
| CGGUAGCAAUAUUACGACUU | -0.479 ± 0.094 | 0.365 ± 0.11 |
| ACCCAGCAAUAUUACGGGUA | -2.54 ± 0.11 | -1.66 ± 0.084 |
| UGUUAGCAAUAUUACGCUUC |  | -1.5 ± 0.48 |
| CAAUAGCAAUAUUACGACAG | -0.279 ± 0.077 | 0.138 ± 0.094 |
| CUGUAGCAAUAUUACGGAAU | -2.18 ± 0.13 | -3.57 ± 0.32 |
| CCUGAGCAAUAUUACGGCUA | -1.85 ± 0.33 |  |
| CAACAGCAAUAUUACGUAGU | -3.22 ± 0.12 | -1.91 ± 0.11 |
| AAACAGCAAUAUUACGUUUC | -3.8 ± 0.1 | -2.73 ± 0.11 |
| GCGUAGCAAUAUUACGAUGU | -2.18 ± 0.068 | -1.15 ± 0.096 |
| AACUAGCAAUAUUACGGAGG | -3.08 ± 0.2 | -1.99 ± 0.22 |
| CGCAAGCAAUAUUACGUGCA | -0.273 ± 0.064 | -0.135 ± 0.075 |
| AGCUAGCAAUAUUACGGGCU | -3.47 ± 0.27 | -2.91 ± 0.36 |
| UUAUAGCAAUAUUACGAAAU | -3.75 ± 0.34 | -1.34 ± 0.3 |
| AUCUAGCAAUAUUACGGUGG | -4.43 ± 0.46 | -2.53 ± 0.19 |
